According to patent US20220332804A1 (CSL INNOVATION, published 2022):
Substitutions are numbered along the chain they refer to.

How the values were obtained:
Experiment in all cases: SPR, antibody captured, C2 as analyte;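 further: biacore at 37 °C, anti-C2 mAbs held by immobilised goat anti-human IgG, C2 alanine or serine mutants injected, double-referenced sensorgrams fitted to a 1:1 kinetic or steady-state model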
[1] = molecular target: T1, human complement C2 (wild type) (human, UniProt P06681 21-752)
T1 construct: Full-length human C2 (NP_000054) with C-terminal 8x His tag, secreted from Expi293F cells and purified from the supernatant; also called WT; huC2
T1 sequence: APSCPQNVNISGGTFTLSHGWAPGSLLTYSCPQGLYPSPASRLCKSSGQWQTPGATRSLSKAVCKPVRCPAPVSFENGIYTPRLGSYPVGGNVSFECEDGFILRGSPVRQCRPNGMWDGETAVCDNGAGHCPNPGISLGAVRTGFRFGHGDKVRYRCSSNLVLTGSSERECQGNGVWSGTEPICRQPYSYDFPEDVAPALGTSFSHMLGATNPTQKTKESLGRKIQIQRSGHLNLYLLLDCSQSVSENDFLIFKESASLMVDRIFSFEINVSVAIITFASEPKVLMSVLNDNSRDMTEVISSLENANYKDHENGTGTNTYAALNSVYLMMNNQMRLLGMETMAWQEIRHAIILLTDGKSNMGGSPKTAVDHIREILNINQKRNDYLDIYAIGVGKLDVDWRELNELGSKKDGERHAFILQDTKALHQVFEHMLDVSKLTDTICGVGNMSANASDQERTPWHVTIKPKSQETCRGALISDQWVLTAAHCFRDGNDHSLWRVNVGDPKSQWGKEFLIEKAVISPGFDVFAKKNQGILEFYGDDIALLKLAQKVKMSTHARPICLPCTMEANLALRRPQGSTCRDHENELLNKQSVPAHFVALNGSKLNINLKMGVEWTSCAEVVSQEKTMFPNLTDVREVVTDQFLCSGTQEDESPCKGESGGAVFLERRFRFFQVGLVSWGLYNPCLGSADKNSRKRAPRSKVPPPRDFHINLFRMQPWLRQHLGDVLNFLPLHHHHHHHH

human C2 S469A = molecular target: T2, human C2 S469A (human, UniProt P06681 21-752)
T2 sequence: T1 sequence with S449A

human C2 A472S = molecular target: T3, human C2 A472S (human, UniProt P06681 21-752)
T3 sequence: T1 sequence with A452S

B1: RF16-242 (antibody, human IgG4 S228P, lambda, V domains shown)
VH: EVQLLQSGAEVKKPGESLKISCKGSGYSFTSYWIGWVRQMPGKGLEWMGIIYPGDSDTRYSPSFQGQVTISADKSISTAYLQWSSLKASDTAMYYCARRGHYGDYFDYWGQGTLVTVSS
VL: SYELTQPPSVSVSPGQTARITCSGDALPKKYAYWYHQKSGQAPVLVIYEDRRRPSEIPERFSGSSSGTMATLTITGAQVEDEGVYFCYSRDRAGNQRVFGGGTQLTVLG
notes: pH-dependent anti-C2 antibody from a phage display library
Binder B1 has a Kd [1] of 7 nM, a Kd (human C2 S469A) of 21.4 nM and a Kd (human C2 A472S) of 51.1 nM.
